Results from patent US20250026792A1, “SELF-ASSEMBLING PEPTIDES WITH HYALURONIC ACID BINDING DOMAINS AND METHODS OF USE THEREOF” (Northwestern University, priority 2022, published 2025).
“Also recorded” adds a separate entry of the source. The star is where a group is joined. Biotin = O=C1N[C@H]2[C@H](CS[C@H]2CCCCC(=O)*)N1

B1: Peptide 10K (peptide)
peptide: Biotin-TKAKIKHSVKLKAKLRIKLVKRI-OH
SMILES: CC[C@H](C)[C@H](NC(=O)[C@H](CCCNC(=N)N)NC(=O)[C@H](CCCCN)NC(=O)[C@@H](NC(=O)[C@H](CC(C)C)NC(=O)[C@H](CCCCN)NC(=O)[C@@H](NC(=O)[C@H](CCCNC(=N)N)NC(=O)[C@H](CC(C)C)NC(=O)[C@H](CCCCN)NC(=O)[C@H](C)NC(=O)[C@H](CCCCN)NC(=O)[C@H](CC(C)C)NC(=O)[C@H](CCCCN)NC(=O)[C@@H](NC(=O)[C@H](CO)NC(=O)[C@H](Cc1c[nH]cn1)NC(=O)[C@H](CCCCN)NC(=O)[C@@H](NC(=O)[C@H](CCCCN)NC(=O)[C@H](C)NC(=O)[C@H](CCCCN)NC(=O)[C@@H](NC(=O)CCCC[C@@H]1SC[C@@H]2NC(=O)N[C@@H]21)[C@@H](C)O)[C@@H](C)CC)C(C)C)[C@@H](C)CC)C(C)C)C(=O)O
notes: 23-residue designed peptide; biotinylated synthetic peptide

Assays:
[1] = Concentration-dependent peptide binding to hyaluronic acid coating (biotin-streptavidin fluorescence)
In short: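 N-terminally biotinylated peptides at 0, 1, 2.5, 5 and 10 mg/ml were incubated overnight at 37 °C in PBS, pH 7.4, on dried hyaluronic acid coatings (10 μg/cm^2), then washed three times in PBS. Groups compared with scrambled control by ANOVA with Tukey post-hoc, n=4.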

[2] = ECM specificity binding test, hyaluronic acid coating; details: 5.0 mg/ml peptide, FIG. 4
Method: (§1) Peptides were incubated 24 hours at 37° C. on collagens I-IV, elastin, hyaluronic acid, and Geltrex. Coatings (10 pig/cm^2) were previously dried overnight in milli-Q water. Overall significance was assessed using analysis of variance, with Tukey's multiple comparison post-hoc analysis between ECM groups where n=4.
(§2) Hyaluronic acid, collagens I, II, III, and IV, elastin, and Geltrex were coated onto 96-well black plates (medium binding affinity) at 10 μg/cm^2 and were dried in milli-Q water at room temperature. N-termini biotinylated peptides were added to coated plates at 0, 1, 2.5, 5 and 10 mg/ml overnight at 37° C. in phosphate buffered saline (PBS), pH 7.4, after which the plates were washed three times with PBS. Fluorescent streptavidin-488 (4 μg/mL) was added to each well and incubated at 37° C. temperature for 24 hours, then thoroughly washed with PBS. The plates were read with a fluorescence microplate reader for fluorescence intensity (Ex 490 nm, Em 525 nm). All data were normalized to the background fluorescence intensity of Streptavidin-488.

[3] = Transmission electron microscopy (TEM) of peptide nanostructures; type: physicochemical; details: for TEM characterization, Phosphate Buffered Saline (i): PBS pH 7.4, 0.5% w/v, 30 minutes sonication, 24 hrs at 37° C.
Method: The sample and stain were filter-dried in between steps. Samples were collected 24 hours at 37° C. after 30 minutes of sonication. All TEM was performed on a Philips FEI Technai Spirit G2 electron microscope. Peptides were incubated in both PBS and SC.

[4] = Circular dichroism (CD) of peptides; type: physicochemical; details: 20 mM Sodium Cacodylate; for Ellipticity ratio (222 nm/208 nm) / Ellipticity 208 nm / Ellipticity 222 nm: 1.25 mg/mL; for Ellipticity 208 nm / Ellipticity 222 nm: CD data given as [θ]M×10^−3; for wavelength Minimum of CD profile: 5.0 mg/mL
[5] = target: T1, elastin (Bos taurus, UniProt P04985); test: ECM specificity binding test, elastin coating; parameters: species or system bovine; details: 5.0 mg/ml peptide, FIG. 4
T1 construct: purchased Sigma-Aldrich
T1 sequence (P04985 27-747): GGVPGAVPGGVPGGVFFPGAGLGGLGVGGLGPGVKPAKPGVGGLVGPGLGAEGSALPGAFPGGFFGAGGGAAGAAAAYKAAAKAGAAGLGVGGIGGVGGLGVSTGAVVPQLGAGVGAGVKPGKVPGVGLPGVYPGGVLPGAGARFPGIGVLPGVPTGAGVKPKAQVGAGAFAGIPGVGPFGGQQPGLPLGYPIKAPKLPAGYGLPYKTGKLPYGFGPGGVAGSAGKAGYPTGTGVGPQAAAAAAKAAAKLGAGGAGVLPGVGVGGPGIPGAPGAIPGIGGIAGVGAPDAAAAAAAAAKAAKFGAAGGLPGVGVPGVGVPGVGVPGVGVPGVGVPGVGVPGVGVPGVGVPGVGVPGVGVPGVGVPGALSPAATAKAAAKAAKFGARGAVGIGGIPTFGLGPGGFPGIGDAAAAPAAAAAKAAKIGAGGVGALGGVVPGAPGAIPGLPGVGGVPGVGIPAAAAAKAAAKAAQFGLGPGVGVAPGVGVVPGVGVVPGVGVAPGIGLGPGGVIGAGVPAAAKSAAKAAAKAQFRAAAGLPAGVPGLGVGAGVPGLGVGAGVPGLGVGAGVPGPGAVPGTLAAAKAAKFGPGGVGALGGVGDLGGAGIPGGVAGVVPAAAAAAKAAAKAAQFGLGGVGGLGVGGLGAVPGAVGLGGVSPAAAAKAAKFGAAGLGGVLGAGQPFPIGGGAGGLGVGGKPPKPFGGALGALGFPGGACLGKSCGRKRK
Method: as §1
(§3) Biotinylated peptides were custom synthesized by ABI Scientific, Inc. (Sterling, VA). Uranyl acetate and TEM grids were from Ted Pella, Inc (Redding, CA). Unless specified otherwise, all water used in these experiments was Milli-Q grade. HA (˜1 MDa), collagen types I (rat), II (chicken), III (human), and IV (mouse), elastin (bovine), deuterium oxide (D2O), acetic acid-d4, sodium acetate-d3, 3-(Trimethylsilyl)propionic-2,2,3,3-d6 (DSS-D6) acid sodium salt, and 2,2,2-trifluoroethanol (TFE) and were obtained from Sigma-Aldrich (St. Louis, MO). Streptavidin (Alexa Fluor 488 conjugate) and Geltrex were obtained from Thermo Fisher Scientific Inc. (Waltham, MA). Sodium hyaluronate (5 and 60 KDa) was purchased from Lifecore Biomedical LLC (Chaska, MN). In reference to terminology, N and C termini is used to describe the amino terminal (N) and the carboxyl terminal (C) of the peptide. The biotinylated peptides are used in every experiment.
as §2

[6] = target: T2, collagen type IV (Mus musculus, UniProt P02463+P08122); test: ECM specificity binding test, collagen type IV coating; details: 5.0 mg/ml peptide, FIG. 4
T2 construct: purchased Sigma-Aldrich
Method: as §1
as §3, with “Sodium hyaluronate (5 and 60 KDa) was purchased from Lifecore Biomedical LLC (Chaska, MN). In reference to terminology, N and C termini is used to describe the amino terminal (N) and the carboxyl terminal (C) of the peptide. The biotinylated peptides are used in every experiment.” left out
(§4) Hyaluronic acid, collagens I, II, III, and IV, elastin, and Geltrex were coated onto 96-well black plates (medium binding affinity) at 10 μg/cm^2 and were dried in milli-Q water at room temperature. […] The plates were read with a fluorescence microplate reader for fluorescence intensity (Ex 490 nm, Em 525 nm). All data were normalized to the background fluorescence intensity of Streptavidin-488.

[7] = system: extracellular matrix (ECM) components: Collagen type I, II, III and IV, elastin, hyaluronic acid and Geltrex; test: ECM specificity binding test, whole panel; details: 5.0 mg/ml peptide, FIG. 4
[8] = target: T3, collagen type II (Gallus gallus, UniProt P02460); test: ECM specificity binding test, collagen type II coating; parameters: species or system chicken; details: 5.0 mg/ml peptide, FIG. 4
T3 construct: purchased Sigma-Aldrich
Method: as §1
as §3, with “Sodium hyaluronate (5 and 60 KDa) was purchased from Lifecore Biomedical LLC (Chaska, MN). In reference to terminology, N and C termini is used to describe the amino terminal (N) and the carboxyl terminal (C) of the peptide. The biotinylated peptides are used in every experiment.” left out
as §4

[9] = system: Geltrex; test: ECM specificity binding test, Geltrex coating; details: 5.0 mg/ml peptide, FIG. 4
Method: as §1
as §3, with “Sodium hyaluronate (5 and 60 KDa) was purchased from Lifecore Biomedical LLC (Chaska, MN). In reference to terminology, N and C termini is used to describe the amino terminal (N) and the carboxyl terminal (C) of the peptide. The biotinylated peptides are used in every experiment.” left out
as §4

[10] = target: T4, collagen type III (Homo sapiens, UniProt P02461); test: ECM specificity binding test, collagen type III coating; details: 5.0 mg/ml peptide, FIG. 4
T4 construct: purchased Sigma-Aldrich
T4 sequence (P02461 154-1221 limits assumed): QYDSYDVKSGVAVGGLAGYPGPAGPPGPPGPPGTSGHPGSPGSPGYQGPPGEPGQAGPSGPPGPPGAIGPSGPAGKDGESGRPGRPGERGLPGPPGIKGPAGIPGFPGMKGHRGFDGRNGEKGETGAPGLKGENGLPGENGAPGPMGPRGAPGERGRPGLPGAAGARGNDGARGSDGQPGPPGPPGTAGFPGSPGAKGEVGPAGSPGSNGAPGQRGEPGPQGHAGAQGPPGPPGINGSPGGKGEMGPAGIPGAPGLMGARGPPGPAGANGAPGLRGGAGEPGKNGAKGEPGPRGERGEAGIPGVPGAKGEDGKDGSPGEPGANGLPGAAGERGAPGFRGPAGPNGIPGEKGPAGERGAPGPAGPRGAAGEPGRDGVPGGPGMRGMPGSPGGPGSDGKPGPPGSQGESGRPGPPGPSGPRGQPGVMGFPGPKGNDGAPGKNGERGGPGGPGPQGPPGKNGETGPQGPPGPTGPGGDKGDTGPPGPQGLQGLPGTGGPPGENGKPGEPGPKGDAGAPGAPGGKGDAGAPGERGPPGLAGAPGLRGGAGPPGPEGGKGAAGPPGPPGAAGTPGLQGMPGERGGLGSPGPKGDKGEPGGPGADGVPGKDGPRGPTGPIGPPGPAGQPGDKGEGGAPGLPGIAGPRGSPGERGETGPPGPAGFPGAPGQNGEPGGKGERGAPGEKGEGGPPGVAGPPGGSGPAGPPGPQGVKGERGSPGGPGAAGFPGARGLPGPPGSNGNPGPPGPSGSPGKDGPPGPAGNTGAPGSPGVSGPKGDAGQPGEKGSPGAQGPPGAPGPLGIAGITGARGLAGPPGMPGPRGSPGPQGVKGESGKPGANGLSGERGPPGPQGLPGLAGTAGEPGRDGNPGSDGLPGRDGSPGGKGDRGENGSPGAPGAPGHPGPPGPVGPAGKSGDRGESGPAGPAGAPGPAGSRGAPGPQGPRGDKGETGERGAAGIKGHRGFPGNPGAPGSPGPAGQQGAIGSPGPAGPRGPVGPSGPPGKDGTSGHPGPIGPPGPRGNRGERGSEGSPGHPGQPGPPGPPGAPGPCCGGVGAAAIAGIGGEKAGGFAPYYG
Method: as §1
as §3, with “Sodium hyaluronate (5 and 60 KDa) was purchased from Lifecore Biomedical LLC (Chaska, MN). In reference to terminology, N and C termini is used to describe the amino terminal (N) and the carboxyl terminal (C) of the peptide. The biotinylated peptides are used in every experiment.” left out
as §4

[11] = target: T5, collagen type I (Rattus norvegicus, UniProt P02454+P02466); test: ECM specificity binding test, collagen type I coating; details: 5.0 mg/ml peptide, FIG. 4
T5 construct: purchased Sigma-Aldrich
Method: as §1
as §3, with “Sodium hyaluronate (5 and 60 KDa) was purchased from Lifecore Biomedical LLC (Chaska, MN). In reference to terminology, N and C termini is used to describe the amino terminal (N) and the carboxyl terminal (C) of the peptide. The biotinylated peptides are used in every experiment.” left out
as §4

[12] = target: T6, collagen type III (human) (human, UniProt P02461 154-1221); test: plate assay: biotinylated peptide (5.0 mg/ml) on dried ECM coating, streptavidin-488 fluorescence
T6 construct: III (human)'; Coated and dried on plates at 10 ug/cm2; also called collagen III
T6 sequence (looked up): T4 sequence (P02461 154-1221 limits assumed)
Method: as §1, with “pig/cm²)” for “pig/cm^2)”
as §2, with “N-termini” for “Hyaluronic acid, collagens I, II, III, and IV, elastin, and Geltrex were coated onto 96-well black plates (medium binding affinity) at 10 μg/cm^2 and were dried in milli-Q water at room temperature. N-termini”

[13] = target: T7, elastin (bovine) (bovine, UniProt P04985 27-747, limits assumed); test: as above
T7 construct: Coated and dried on plates at 10 ug/cm2
T7 sequence (looked up): T1 sequence (P04985 27-747)
Method: as §1, with “pig/cm²)” for “pig/cm^2)”
as §2, with “N-termini” for “Hyaluronic acid, collagens I, II, III, and IV, elastin, and Geltrex were coated onto 96-well black plates (medium binding affinity) at 10 μg/cm^2 and were dried in milli-Q water at room temperature. N-termini”

T3 sequence (P02460 whole entry): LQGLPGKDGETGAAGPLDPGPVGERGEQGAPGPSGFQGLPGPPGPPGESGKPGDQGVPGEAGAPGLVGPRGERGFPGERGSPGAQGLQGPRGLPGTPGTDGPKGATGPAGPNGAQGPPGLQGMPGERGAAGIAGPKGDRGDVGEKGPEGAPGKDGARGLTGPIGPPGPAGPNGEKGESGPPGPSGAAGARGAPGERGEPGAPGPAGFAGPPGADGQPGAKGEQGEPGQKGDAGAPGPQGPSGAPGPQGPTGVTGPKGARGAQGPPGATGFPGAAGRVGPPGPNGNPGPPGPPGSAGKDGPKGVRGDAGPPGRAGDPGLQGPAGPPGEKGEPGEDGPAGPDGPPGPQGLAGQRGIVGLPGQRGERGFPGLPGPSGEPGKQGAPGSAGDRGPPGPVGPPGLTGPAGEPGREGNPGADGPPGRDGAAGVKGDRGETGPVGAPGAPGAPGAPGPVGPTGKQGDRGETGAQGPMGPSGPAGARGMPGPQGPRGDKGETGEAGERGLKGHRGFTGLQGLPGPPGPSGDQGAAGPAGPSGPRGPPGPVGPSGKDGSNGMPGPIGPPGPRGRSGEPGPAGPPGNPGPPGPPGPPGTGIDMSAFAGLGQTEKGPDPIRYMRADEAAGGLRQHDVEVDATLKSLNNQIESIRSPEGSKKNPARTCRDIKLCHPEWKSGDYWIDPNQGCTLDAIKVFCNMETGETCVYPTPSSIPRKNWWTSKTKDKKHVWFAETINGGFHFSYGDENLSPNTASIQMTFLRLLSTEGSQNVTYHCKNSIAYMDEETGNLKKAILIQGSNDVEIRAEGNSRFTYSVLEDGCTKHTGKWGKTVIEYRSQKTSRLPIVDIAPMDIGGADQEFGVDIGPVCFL
T5 sequence (P02454 152-1207 limits assumed): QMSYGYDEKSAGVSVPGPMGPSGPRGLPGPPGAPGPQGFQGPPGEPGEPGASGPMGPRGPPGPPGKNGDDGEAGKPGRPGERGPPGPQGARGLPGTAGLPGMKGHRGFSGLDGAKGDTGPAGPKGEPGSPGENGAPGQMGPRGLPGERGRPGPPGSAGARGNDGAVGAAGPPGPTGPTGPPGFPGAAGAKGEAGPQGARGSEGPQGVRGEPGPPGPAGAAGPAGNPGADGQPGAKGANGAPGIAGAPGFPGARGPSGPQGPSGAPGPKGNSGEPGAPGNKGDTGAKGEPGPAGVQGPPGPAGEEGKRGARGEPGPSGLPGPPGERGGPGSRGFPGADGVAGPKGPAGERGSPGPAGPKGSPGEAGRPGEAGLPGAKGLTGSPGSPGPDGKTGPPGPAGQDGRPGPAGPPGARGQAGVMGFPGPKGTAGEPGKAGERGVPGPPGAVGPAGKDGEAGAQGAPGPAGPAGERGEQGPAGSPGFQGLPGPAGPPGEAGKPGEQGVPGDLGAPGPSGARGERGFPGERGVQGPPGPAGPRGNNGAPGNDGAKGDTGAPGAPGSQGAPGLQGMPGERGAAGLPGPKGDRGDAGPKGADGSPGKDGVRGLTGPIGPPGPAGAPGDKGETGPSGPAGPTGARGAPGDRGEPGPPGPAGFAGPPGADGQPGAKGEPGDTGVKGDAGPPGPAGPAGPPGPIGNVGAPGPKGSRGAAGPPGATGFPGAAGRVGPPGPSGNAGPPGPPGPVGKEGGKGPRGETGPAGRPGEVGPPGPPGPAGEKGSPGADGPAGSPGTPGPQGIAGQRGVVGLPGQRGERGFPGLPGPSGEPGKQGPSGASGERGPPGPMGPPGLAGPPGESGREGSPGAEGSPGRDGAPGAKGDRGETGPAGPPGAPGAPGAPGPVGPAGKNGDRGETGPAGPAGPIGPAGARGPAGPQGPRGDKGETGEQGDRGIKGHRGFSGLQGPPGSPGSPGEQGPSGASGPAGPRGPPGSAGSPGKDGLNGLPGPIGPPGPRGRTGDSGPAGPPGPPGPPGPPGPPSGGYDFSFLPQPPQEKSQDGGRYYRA
T5 sequence (P02466 86-1125 limits assumed): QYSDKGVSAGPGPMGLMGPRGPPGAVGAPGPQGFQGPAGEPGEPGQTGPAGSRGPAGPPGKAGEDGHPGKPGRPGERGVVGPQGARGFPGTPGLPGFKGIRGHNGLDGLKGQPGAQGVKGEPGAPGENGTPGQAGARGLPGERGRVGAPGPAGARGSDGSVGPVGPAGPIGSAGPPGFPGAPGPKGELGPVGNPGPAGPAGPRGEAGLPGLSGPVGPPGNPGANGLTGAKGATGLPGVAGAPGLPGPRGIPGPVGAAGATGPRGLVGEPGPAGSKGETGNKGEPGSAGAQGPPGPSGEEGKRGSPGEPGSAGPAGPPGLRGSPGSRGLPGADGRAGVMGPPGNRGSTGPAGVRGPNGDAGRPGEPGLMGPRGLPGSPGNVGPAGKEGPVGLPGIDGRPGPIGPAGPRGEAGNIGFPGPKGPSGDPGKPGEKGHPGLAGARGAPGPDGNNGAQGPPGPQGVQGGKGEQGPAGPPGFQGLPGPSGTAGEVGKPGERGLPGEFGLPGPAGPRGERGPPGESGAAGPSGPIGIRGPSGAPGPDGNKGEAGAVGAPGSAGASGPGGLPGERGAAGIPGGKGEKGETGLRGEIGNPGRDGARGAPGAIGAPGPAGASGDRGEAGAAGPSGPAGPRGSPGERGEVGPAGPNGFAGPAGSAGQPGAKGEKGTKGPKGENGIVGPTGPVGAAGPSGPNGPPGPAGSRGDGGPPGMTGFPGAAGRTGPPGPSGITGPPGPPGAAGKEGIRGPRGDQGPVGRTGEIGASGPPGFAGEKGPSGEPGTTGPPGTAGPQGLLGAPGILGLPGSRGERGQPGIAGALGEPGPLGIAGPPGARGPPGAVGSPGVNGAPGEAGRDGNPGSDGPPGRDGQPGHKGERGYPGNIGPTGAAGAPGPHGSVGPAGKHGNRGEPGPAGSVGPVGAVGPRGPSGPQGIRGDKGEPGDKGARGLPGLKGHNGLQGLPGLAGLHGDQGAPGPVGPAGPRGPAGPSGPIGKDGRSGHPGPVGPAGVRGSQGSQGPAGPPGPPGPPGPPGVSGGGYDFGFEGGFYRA

| Molecule | TEM characterization, Phosphate Buffered Saline (i) [3] | Ellipticity ratio (222 nm/208 nm) [4] | Ellipticity 208 nm [4] | Ellipticity 222 nm [4] | wavelength Minimum of CD profile [4] [nm] | wavelength Minimum of CD profile ([4]; 20% TFE) [nm] | binding to elastin [5] | binding to collagen type II [8] | other results |
| --- | --- | --- | --- | --- | --- | --- | --- | --- | --- |
| TNLRNKYTFLARARANLAVRNKQNIKS [BHP4, variant of BHP3] | form fibers with many striations that form larger fibers and the larger fibers tend to form a mesh network | 0.81 | −107 | −86.6 | 226 | 225 | moderately | moderately | binding to hyaluronic acid with increasing concentrations of peptide (fluorescence intensity) ([1]; 0-10 mg/ml peptide, PBS pH 7.4, 37° C., HA coating 10 μg/cm^2, FIG. 3): increases dramatically; HA binding, overall assessment ([1]; summary and discussion statements): comparable binding; also recorded: HA specific and robust binders; binding to hyaluronic acid in specificity testing [2]: binds; nanofiber formation in TEM, overall ([3]; both PBS and sodium cacodylate): consistent nanofibers; also recorded: predominantly form fibers with striations and furthermore form a mesh network; binding to collagen type IV [6]: moderately; specificity of binding to ECMs [7]: lowest specificity; binding to Geltrex [9]: moderately |
| TKAKIKHSVKLKAKLRIKLVKRI [Peptide 10K, five B(X7)B domains in 23 residues] | No structure | 0.67 | −113 | −75.3 | 224 | 223 | predominantly | predominantly | Ellipticity ratio (222 nm/208 nm) ([4]; 20% TFE): 0.83; Ellipticity 208 nm ([4]; 20% TFE): −235; Ellipticity 222 nm ([4]; 20% TFE): −194; binding to collagen type III [10]: predominantly; binding to the ECMs (for 17x-3: the ECMs other than hyaluronic acid) [7]: moderate binding; binding to collagen type I [11]: predominantly |
| B1 | – | – | – | – | – | – | – | – | binding result [12]: binds; binding result [13]: binds |
